For three molecules, Kd results are on record in US20230114801A1 (SYSTIMMUNE, published 2023).

B2: human CD3 (receptor)
chain 1: DGNEEMGGITQTPYKVSISGTTVILTCPQYPGSEILWQHNDKNIGGDEDDKNIGSDEDHLSLKEFSELEQSGYYVCYPRGSKPEDANFYLYLRARVCENCMEMD
chain 2: FKIPIEELEDRVFVNCNTSITWVEGTVGTLLSDITRLDLGKRILDPRGIYRCNGTDIYKDKESTVQVHYRMCQSCVELDPATVA
notes: also called His-tagged human CD3; human CD3 (Acro CDD-H52W1)

The assay “human CD3” has as its target B2. Kind of assay: BLI (Octet), binder on AHC sensor, 100 nM human CD3, 1:1 fit. A general note: In BLI a coated tip is dipped into the sample, and binding shifts an interference pattern.
A further assay concerns the target T1, human PD-L1 (human, UniProt Q9NZQ7 19-238).
T1 construct: Soluble antigen in Octet; bought; also called human PD-L1 (Acro PD1-H5229)
Kind of assay: BLI (Octet), binder on AHC sensor, 20 nM human PD-L1, 1:1 fit.

The target in assay [1] is T2, human EGFR (human, UniProt P00533 25-645, limits assumed).
T2 construct: Soluble antigen in Octet; construct not described
Kind of assay: BLI (Octet), binder on AHC sensor, 200 nM human EGFR, 1:1 fit.

A further assay addresses T3, human 4-1BB (human, UniProt Q07011 24-186, limits assumed).
T3 construct: Soluble antigen in Octet; construct not described
Kind of assay: BLI (Octet), binder on AHC sensor, 400 nM human 4-1BB, 1:1 fit.

The next assay concerns the target T4, SI-49P9.
T4 construct: penta-miniGNC; D1 αCD3, D2 αCD19, D3 NKG2D receptor dimer, D4 41BBL, D5 αPD-L1
Kind of assay: BLI (Octet); conditions not stated.

In the next assay the target is T5, SI-75P4.
T5 construct: penta-miniGNC; D1 αEGFR, D2 αHER3, D3 αCD3 (Fab), D4 41BBL (ligand of the 4-1BB receptor), D5 αPD-L1
T5 sequence (chain, as listed by the source): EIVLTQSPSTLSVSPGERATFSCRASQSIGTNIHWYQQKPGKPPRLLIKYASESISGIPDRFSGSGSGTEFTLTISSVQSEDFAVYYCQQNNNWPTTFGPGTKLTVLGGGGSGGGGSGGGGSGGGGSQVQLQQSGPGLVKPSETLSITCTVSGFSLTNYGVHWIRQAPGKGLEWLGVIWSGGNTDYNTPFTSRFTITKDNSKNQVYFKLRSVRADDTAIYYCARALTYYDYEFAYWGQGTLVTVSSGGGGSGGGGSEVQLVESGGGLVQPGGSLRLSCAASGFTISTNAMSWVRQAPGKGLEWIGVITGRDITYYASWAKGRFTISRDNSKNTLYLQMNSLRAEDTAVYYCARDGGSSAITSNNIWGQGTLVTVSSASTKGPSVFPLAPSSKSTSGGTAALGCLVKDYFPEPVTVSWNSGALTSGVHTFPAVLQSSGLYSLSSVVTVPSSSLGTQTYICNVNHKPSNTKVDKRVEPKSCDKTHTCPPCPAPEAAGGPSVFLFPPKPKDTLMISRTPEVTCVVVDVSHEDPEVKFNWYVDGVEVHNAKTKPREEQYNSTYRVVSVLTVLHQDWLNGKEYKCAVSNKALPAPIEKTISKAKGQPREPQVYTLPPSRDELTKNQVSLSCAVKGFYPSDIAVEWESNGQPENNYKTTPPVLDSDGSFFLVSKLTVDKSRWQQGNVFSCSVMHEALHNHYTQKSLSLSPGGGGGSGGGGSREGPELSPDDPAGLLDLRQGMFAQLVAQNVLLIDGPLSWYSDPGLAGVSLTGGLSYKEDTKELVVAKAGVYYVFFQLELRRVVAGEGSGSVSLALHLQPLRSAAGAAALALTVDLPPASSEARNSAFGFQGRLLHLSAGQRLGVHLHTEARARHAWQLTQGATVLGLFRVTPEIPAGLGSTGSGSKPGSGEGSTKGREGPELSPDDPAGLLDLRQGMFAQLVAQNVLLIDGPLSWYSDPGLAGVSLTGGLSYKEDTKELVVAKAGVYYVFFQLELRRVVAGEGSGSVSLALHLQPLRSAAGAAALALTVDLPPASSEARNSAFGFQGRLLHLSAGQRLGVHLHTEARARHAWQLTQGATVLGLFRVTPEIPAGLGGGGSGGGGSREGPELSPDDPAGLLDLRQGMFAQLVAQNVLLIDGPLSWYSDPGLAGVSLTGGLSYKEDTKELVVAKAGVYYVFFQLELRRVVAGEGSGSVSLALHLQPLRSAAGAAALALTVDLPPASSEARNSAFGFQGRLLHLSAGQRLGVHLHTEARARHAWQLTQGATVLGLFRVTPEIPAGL
Kind of assay: BLI (Octet), binder on AHC sensor, 100 nM human antigen, 1:1 fit.

For assay [2], the target named is T2, human EGFR. Kind of assay: BLI (Octet), binder on AHC sensor, 200 nM human EGFR, 1:1 fit; molecule has two EGFR-binding domains, same value printed under D1 and D4.
Another assay has as its target T6, human HER3 (human, UniProt P21860 20-643).
T6 construct: Soluble antigen in Octet; bought; also called human HER3 (Acro ER3-H5223)
Kind of assay: BLI (Octet), binder on AHC sensor, 200 nM human HER3, 1:1 fit; molecule has two HER3-binding domains, same value printed under D2 and D5.

T4 sequence (chain, as listed by the source, chain 1 of 2): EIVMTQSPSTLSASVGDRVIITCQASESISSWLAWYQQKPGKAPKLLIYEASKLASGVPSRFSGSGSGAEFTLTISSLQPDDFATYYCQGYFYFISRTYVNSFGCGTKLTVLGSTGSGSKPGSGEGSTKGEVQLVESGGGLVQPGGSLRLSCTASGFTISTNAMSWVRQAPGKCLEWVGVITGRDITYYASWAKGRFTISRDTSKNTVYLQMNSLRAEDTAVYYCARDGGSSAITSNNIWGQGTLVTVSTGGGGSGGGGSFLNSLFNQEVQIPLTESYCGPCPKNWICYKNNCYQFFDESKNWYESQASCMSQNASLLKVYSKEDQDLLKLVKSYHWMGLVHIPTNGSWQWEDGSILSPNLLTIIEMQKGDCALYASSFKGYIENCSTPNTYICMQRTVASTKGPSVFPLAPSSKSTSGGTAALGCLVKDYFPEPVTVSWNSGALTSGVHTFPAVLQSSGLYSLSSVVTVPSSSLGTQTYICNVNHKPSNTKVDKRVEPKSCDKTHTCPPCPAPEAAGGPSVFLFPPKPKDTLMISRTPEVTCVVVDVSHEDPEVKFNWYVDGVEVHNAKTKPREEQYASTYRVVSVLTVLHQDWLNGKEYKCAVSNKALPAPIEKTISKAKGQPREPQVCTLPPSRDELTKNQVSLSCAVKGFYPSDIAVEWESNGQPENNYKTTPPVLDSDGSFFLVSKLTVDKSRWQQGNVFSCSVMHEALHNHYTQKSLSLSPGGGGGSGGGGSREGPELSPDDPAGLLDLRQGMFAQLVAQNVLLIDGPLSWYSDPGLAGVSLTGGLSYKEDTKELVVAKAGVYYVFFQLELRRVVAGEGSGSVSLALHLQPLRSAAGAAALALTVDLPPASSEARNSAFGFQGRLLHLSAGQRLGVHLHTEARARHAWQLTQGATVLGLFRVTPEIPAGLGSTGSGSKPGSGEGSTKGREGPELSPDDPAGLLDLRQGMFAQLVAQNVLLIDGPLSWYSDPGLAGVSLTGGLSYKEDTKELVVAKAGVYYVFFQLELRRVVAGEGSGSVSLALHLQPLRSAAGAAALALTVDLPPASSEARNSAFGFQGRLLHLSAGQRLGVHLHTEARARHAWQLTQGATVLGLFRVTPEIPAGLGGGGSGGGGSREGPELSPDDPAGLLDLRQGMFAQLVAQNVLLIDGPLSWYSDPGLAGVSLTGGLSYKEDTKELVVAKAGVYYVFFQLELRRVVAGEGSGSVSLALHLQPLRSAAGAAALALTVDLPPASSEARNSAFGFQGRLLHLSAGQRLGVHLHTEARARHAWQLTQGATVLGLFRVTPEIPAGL
T4 sequence (chain, as listed by the source, chain 2 of 2): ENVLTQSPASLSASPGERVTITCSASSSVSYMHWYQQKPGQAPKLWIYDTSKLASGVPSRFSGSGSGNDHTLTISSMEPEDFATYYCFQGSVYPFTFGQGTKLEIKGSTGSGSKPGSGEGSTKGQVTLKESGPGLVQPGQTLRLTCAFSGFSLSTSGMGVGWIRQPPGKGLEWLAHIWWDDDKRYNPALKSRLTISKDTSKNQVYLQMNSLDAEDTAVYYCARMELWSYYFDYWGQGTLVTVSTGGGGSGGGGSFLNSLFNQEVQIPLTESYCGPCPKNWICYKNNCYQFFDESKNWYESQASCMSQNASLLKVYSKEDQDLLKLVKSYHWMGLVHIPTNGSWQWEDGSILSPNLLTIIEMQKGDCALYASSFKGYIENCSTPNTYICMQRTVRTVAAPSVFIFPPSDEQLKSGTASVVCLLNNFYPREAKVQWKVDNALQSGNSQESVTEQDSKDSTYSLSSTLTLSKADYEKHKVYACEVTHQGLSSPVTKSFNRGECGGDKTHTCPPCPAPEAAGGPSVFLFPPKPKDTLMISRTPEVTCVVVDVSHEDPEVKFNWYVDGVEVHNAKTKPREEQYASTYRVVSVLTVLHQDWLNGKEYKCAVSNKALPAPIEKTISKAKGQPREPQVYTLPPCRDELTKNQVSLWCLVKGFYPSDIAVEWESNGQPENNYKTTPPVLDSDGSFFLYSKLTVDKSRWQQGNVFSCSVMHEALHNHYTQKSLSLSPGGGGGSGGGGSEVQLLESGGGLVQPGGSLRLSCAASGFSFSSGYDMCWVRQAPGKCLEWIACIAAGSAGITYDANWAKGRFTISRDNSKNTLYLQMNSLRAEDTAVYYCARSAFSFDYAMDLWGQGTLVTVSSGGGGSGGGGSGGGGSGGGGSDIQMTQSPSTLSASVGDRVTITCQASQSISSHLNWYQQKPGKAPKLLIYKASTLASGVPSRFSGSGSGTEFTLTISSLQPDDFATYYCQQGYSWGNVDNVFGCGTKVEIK

B1: SI-75P5 (other)
chain 1: EVQLQESGGGLVQAGDSLSLSCLVSGRSFNSYTMGWFRQAPGKEREFVAAILWSGPTTYYADSVKGRFTISRDNAKNTVYLQMNSLKPEDTAVYYCAAALGVLVLAPGNVYSYWGQGTQVTVSSGGGGSGGGGSEVQLVESGGGLVQPGGSLRLSCAASGFTISTNAMSWVRQAPGKGLEWIGVITGRDITYYASWAKGRFTISRDNSKNTLYLQMNSLRAEDTAVYYCARDGGSSAITSNNIWGQGTLVTVSSASTKGPSVFPLAPSSKSTSGGTAALGCLVKDYFPEPVTVSWNSGALTSGVHTFPAVLQSSGLYSLSSVVTVPSSSLGTQTYICNVNHKPSNTKVDKRVEPKSCDKTHTCPPCPAPEAAGGPSVFLFPPKPKDTLMISRTPEVTCVVVDVSHEDPEVKFNWYVDGVEVHNAKTKPREEQYNSTYRVVSVLTVLHQDWLNGKEYKCAVSNKALPAPIEKTISKAKGQPREPQVYTLPPSRDELTKNQVSLSCAVKGFYPSDIAVEWESNGQPENNYKTTPPVLDSDGSFFLVSKLTVDKSRWQQGNVFSCSVMHEALHNHYTQKSLSLSPGGGGGSGGGGSDVVMTQSPSSVSASVGDRVTITCQASQNIRTYLSWYQQKPGKAPKLLIYAAANLASGVPSRFSGSGSGTDFTLTISDLEPGDAATYYCQSTYLGTDYVGGAFGGGTKLTVLGGGGSGGGGSGGGGSGGGGSEVQLVESGGGLVQPGGSLRLSCTASGFTISSYHMQWVRQAPGKGLEYIGTISSGGNVYYASSARGRFTISRPSSKNTVDLQMNSLRAEDTAVYYCARDSGYSDPMWGQGTLVTVSS
chain 2: QVQLVQSGGGLVQAGGSLSLSCAFSGRTFSMYTMGWFRQAPGKEREFVAANRGRGLSPDIADSVNGRFTISRDNAKNTLYLQMDSLKPEDTAVYYCAADLQYGSSWPQRSSAEYDYWGQGTTVTVSSGGGGSGGGGSDVVMTQSPSTLSASVGDRVTINCQASESISSWLAWYQQKPGKAPKLLIYEASKLASGVPSRFSGSGSGTEFTLTISSLQPDDFATYYCQGYFYFISRTYVNSFGGGTKVEIKRTVAAPSVFIFPPSDEQLKSGTASVVCLLNNFYPREAKVQWKVDNALQSGNSQESVTEQDSKDSTYSLSSTLTLSKADYEKHKVYACEVTHQGLSSPVTKSFNRGECGGDKTHTCPPCPAPEAAGGPSVFLFPPKPKDTLMISRTPEVTCVVVDVSHEDPEVKFNWYVDGVEVHNAKTKPREEQYNSTYRVVSVLTVLHQDWLNGKEYKCAVSNKALPAPIEKTISKAKGQPREPQVYTLPPSRDELTKNQVSLWCLVKGFYPSDIAVEWESNGQPENNYKTTPPVLDSDGSFFLYSKLTVDKSRWQQGNVFSCSVMHEALHNRFTQKSLSLSPGGGGGSGGGGSDIQMTQSPSTLSASVGDRVTITCQASQSISSHLNWYQQKPGKAPKLLIYKASTLASGVPSRFSGSGSGTEFTLTISSLQPDDFATYYCQQGYSWGNVDNVFGGGTKVTVLGGGGSGGGGSGGGGSGGGGSEVQLLESGGGLVQPGGSLSLSCAASGFSFSSGYDMCWVRQAPGKGLEWIACIAAGSAGITYDANWAKGRFTISRDNSKNTLYLQMNSLRAEDTAVYYCARSAFSFDYAMDLWGQGTLVTVSS
notes: penta-miniGNC; D1 αEGFR VHH, D2 αHER3 VHH, D3 αCD3 (Fab), D4 α4-1BB, D5 αPD-L1
With B1, the equilibrium dissociation constant (Kd) with human CD3 amounted to 26.1 nM; in the assay with human PD-L1, 3.25 nM; with human EGFR [1], 23.5 nM; with human 4-1BB it was 23.3 nM.
In the case of B2, the Kd is 29.8 nM with SI-49P9 and 22.7 nM with SI-75P4.

B3: SI-75P8 (other)
chain 1: EVQLQESGGGLVQAGDSLSLSCLVSGRSFNSYTMGWFRQAPGKEREFVAAILWSGPTTYYADSVKGRFTISRDNAKNTVYLQMNSLKPEDTAVYYCAAALGVLVLAPGNVYSYWGQGTQVTVSSGGGGSGGGGSQVQLQESGGRLVQPGEPLSLTCKTSGIDLSSNAIGWVRQAPGKGLEWIGVIFGSGNTYYASWAKGRFTISRSTSTVYLKMNSLRSEDTAIYYCARGGYSSDIWGQGTLVTVSSASTKGPSVFPLAPSSKSTSGGTAALGCLVKDYFPEPVTVSWNSGALTSGVHTFPAVLQSSGLYSLSSVVTVPSSSLGTQTYICNVNHKPSNTKVDKRVEPKSCDKTHTCPPCPAPEAAGGPSVFLFPPKPKDTLMISRTPEVTCVVVDVSHEDPEVKFNWYVDGVEVHNAKTKPREEQYNSTYRVVSVLTVLHQDWLNGKEYKCAVSNKALPAPIEKTISKAKGQPREPQVYTLPPSRDELTKNQVSLSCAVKGFYPSDIAVEWESNGQPENNYKTTPPVLDSDGSFFLVSKLTVDKSRWQQGNVFSCSVMHEALHNHYTQKSLSLSPGGGGGSGGGGSQVQLQQSGPGLVKPSETLSITCTVSGFSLTNYGVHWIRQAPGKGLEWLGVIWSGGNTDYNTPFTSRFTITKDNSKNQVYFKLRSVRADDTAIYYCARALTYYDYEFAYWGQGTLVTVSSGGGGSGGGGSGGGGSGGGGSEIVLTQSPSTLSVSPGERATFSCRASQSIGTNIHWYQQKPGKPPRLLIKYASESISGIPDRFSGSGSGTEFTLTISSVQSEDFAVYYCQQNNNWPTTFGPGTKLTVL
chain 2: QVQLVQSGGGLVQAGGSLSLSCAFSGRTFSMYTMGWFRQAPGKEREFVAANRGRGLSPDIADSVNGRFTISRDNAKNTLYLQMDSLKPEDTAVYYCAADLQYGSSWPQRSSAEYDYWGQGTTVTVSSGGGGSGGGGSDPQLTQSPSSLSATVGQRVTINCQSSQSVAKNNNLAWFQQKPGKPPKLLIYSASTLAAGVPSRFSGSGSGTQFTLTITRVQSEDFATYYCSARDSGNIQSFGGGTRVEIKRTVAAPSVFIFPPSDEQLKSGTASVVCLLNNFYPREAKVQWKVDNALQSGNSQESVTEQDSKDSTYSLSSTLTLSKADYEKHKVYACEVTHQGLSSPVTKSFNRGECGGDKTHTCPPCPAPEAAGGPSVFLFPPKPKDTLMISRTPEVTCVVVDVSHEDPEVKFNWYVDGVEVHNAKTKPREEQYNSTYRVVSVLTVLHQDWLNGKEYKCAVSNKALPAPIEKTISKAKGQPREPQVYTLPPSRDELTKNQVSLWCLVKGFYPSDIAVEWESNGQPENNYKTTPPVLDSDGSFFLYSKLTVDKSRWQQGNVFSCSVMHEALHNRFTQKSLSLSPGGGGGSGGGGSQVQLQESGGGLVKPGGSLSLSCAASGFTFSSYWMSWVRQAPGKGLEWVANINRDGSASYYVDSVKGRFTISRDDAKNSLYLQMNSLRAEDTAVYYCARDRGVGYFDLWGRGTLVTVSSGGGGSGGGGSGGGGSQSALTQPASVSGSPGQSITISCTGTSSDVGGYNFVSWYQQHPGKAPKLMIYDVSDRPSGVSDRFSGSKSGNTASLIISGLQADDEADYYCSSYGSSSTHVIFGGGTKVTVL
notes: D1 αEGFR VHH, D2 αHER3 VHH, D3 αCD3* (Fab), D4 αEGFR scFv, D5 αHER3 scFv
With B3, the Kd was 44.1 nM in the assay with human CD3, 6.22 nM with human EGFR [2] and 0.786 nM in the assay with human HER3.

A word on the Kd: it is the constant that tells how readily two partners part at equilibrium. Higher therefore signals lower affinity.
